Reference: PMC1188515

T1: ScMre11p (Saccharomyces cerevisiae, UniProt P32829 1-692)
T1 sequence: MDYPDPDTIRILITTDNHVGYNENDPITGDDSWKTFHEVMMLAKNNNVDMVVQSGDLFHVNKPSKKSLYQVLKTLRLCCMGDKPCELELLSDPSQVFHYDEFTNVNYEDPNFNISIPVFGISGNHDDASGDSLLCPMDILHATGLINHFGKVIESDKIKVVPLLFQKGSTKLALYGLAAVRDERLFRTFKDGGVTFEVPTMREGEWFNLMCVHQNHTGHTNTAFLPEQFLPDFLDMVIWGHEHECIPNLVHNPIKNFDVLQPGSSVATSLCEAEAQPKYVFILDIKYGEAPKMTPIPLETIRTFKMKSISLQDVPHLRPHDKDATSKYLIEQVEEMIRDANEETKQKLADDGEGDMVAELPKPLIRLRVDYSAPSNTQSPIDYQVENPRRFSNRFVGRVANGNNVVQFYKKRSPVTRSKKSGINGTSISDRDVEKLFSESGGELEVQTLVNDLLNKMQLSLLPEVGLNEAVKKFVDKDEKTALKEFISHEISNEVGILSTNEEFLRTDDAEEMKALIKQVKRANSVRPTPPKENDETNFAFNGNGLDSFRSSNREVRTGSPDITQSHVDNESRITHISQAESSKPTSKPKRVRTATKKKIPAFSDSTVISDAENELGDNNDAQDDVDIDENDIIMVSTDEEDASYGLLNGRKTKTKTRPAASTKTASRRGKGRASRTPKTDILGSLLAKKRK


What was measured:
ScMre11p [1] = target: T1, ScMre11p; assay: EMSA
ScMre11p [2] = target: T1, ScMre11p; assay: EMSA; remark: listed apart in the source

| Binder | binding result (ScMre11p [1]) | Kd (ScMre11p [2]) |
| --- | --- | --- |
| 6G3 G4 DNA (structured_DNA) DNA: AATTCTGGGTGTGTGGGTGTGTGGGTGTGTGGGTGTGTGGGTGTGTGGGTGTGG | binds | – |
| AATTCTGGGTGTGTGGGTGTGTGGGTGTGTGGGTGTGG (structured_DNA) [4G3 G4 DNA] | – | 70 nM |
